One substance from US20130195836A1 can be followed below.

For this test, the target named is human macrophage mannose receptor C type 1 (MRC1) (human) (UniProt P22897). In words: flow cytometry on stable pool of MRC1-transfected HT1080 cells compared to untransfected HT1080 cells. For orientation: In flow cytometry, cells or beads pass a laser one at a time.
UniProt P22897, sequence (P22897 19-1456 limits assumed): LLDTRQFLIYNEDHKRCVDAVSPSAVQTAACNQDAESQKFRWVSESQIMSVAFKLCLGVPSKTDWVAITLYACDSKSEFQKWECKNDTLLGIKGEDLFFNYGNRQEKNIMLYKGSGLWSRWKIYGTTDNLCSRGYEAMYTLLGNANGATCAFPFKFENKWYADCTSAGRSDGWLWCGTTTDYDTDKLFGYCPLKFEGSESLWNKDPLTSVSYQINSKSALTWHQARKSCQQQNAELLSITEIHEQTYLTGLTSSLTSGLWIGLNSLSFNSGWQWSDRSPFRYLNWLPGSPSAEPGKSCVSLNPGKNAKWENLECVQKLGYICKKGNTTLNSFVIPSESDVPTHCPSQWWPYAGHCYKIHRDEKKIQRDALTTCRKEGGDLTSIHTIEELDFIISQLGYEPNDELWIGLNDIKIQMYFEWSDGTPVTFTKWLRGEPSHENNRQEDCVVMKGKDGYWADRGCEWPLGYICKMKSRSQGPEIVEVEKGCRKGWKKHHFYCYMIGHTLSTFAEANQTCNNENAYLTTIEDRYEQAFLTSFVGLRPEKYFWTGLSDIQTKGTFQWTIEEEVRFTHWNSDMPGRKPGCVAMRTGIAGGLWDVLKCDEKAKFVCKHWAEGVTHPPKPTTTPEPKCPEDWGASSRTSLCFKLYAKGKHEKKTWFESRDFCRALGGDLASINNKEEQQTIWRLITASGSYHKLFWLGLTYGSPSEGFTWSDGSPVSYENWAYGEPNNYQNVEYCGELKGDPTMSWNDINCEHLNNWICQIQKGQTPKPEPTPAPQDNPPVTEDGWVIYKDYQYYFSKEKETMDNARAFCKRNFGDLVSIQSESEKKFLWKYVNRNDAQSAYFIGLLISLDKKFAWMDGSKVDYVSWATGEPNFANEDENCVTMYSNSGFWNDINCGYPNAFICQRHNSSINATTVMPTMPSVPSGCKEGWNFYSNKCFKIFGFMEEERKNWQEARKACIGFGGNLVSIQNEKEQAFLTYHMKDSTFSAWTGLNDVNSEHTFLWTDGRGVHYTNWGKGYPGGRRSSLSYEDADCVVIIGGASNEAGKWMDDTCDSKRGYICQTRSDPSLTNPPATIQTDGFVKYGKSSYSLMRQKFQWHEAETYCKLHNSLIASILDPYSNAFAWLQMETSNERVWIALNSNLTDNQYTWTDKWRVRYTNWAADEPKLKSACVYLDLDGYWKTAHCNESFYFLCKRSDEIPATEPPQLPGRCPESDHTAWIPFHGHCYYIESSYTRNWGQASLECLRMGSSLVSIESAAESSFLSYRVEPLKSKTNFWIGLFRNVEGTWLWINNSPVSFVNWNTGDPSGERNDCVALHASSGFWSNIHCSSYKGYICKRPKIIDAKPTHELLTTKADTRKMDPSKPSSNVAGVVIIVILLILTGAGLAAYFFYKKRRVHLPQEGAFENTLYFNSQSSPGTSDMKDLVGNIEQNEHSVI

With “FITC conjugated Mouse anti-human MRC1 antibody (BD Biosciences Cat #551135)”, the Relative Fluorescence Intensity (RFI) above the background turned out to be 1.5 logs.
